Results: the supplement of paper PMC6755084

B1: F1*; the commonest letter at each place (parent)
chain: GAGACCGCAACTGAAAAGTTGTTATCACTTGTCGTAAGACACTTTGGATGGGTTGAAGTTCTGCACGTAGAAGCAAAAGGC

Variants of: B1
Experiment: fraction ligated after 30 min (ligated reads / total reads); higher = more ligase activity
Conditions: with F1*sub RNA substrate (template-directed ligation), 42 °C
Summary of the method: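 Ribozyme variants were transcribed with T7 from PCR-amplified oligo-pool templates and gel-purified. Ligated and unligated bands, separated on gel, were reverse transcribed with barcoded primers and sequenced on a MiSeq, with core bases filtered at quality ≥20. Fraction ligated per variant was computed as ligated reads divided by total reads.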

Variant | fraction ligated
GAGACCGCAACTGAAAAGTTGTTATCACTTGTCGTAAGACACTTAGGCTGGGTTGAAGTTCTGCACGTAGAAGCAAAAGGC [T45A A48C] | 0.23
GAGACCGCAACTGAAAAGTTGTTATCACTTGTCGTAAGACACTTAGGGTGGGTTGAAGTTCTGCACGTAGAAGCAAAAGGC [T45A A48G] | 0.261
GAGACCGCAACTGAAAAGTTGTTATCACTTGTCGTAAGACACTTAGGTTGGGTTGAAGTTCTGCACGTAGAAGCAAAAGGC [T45A A48T] | 0.0749
GAGACCGCAACTGAAAAGTTGTTATCACTTGTCGTAAGACACTCGGGATGGGTTGAAGTTCTGCACGTAGAAGCAAAAGGC [T44C T45G] | 0.191
GAGACCGCAACTGAAAAGTTGTTATCACTTGTCGTAAGACACTCAGGATGGGTTGAAGTTCTGCACGTAGAAGCAAAAGGC [T44C T45A] | 0.768
GAGACCGCAACTGAAAAGTTGTTATCACTTGTCGTAAGACACTCCGGATGGGTTGAAGTTCTGCACGTAGAAGCAAAAGGC [T44C T45C] | 0.747
GAGACCGCAACTGAAAAGTTGTTATCACTTGTCGTAAGACACTGTGGATTGGTTGAAGTTCTGCACGTAGAAGCAAAAGGC [T44G G50T] | 0.344
GAGACCGCAACTGAAAAGTTGTTATCACTTGTCGTAAGACACTGTGGATCGGTTGAAGTTCTGCACGTAGAAGCAAAAGGC [T44G G50C] | 0.0717
GAGACCGCAACTGAAAAGTTGTTATCACTTGTCGTAAGACACTGTGGATAGGTTGAAGTTCTGCACGTAGAAGCAAAAGGC [T44G G50A] | 0.132
GAGACCGCAACTGAAAAGTTGTTATCACTTGTCGTAAGACACTGTCGATGGGTTGAAGTTCTGCACGTAGAAGCAAAAGGC [T44G G46C] | 0.806
GAGACCGCAACTGAAAAGTTGTTATCACTTGTCGTAAGACACTGTAGATGGGTTGAAGTTCTGCACGTAGAAGCAAAAGGC [T44G G46A] | 0.818
GAGACCGCAACTGAAAAGTTGTTATCACTTGTCGTAAGACACTGTTGATGGGTTGAAGTTCTGCACGTAGAAGCAAAAGGC [T44G G46T] | 0.805
GAGACCGCAACTGAAAAGTTGTTATCACTTGTCGTAAGACACTGTGCATGGGTTGAAGTTCTGCACGTAGAAGCAAAAGGC [T44G G47C] | 0.0306
GAGACCGCAACTGAAAAGTTGTTATCACTTGTCGTAAGACACTGTGAATGGGTTGAAGTTCTGCACGTAGAAGCAAAAGGC [T44G G47A] | 0.305
GAGACCGCAACTGAAAAGTTGTTATCACTTGTCGTAAGACACTGTGTATGGGTTGAAGTTCTGCACGTAGAAGCAAAAGGC [T44G G47T] | 0.0521
GAGACCGCAACTGAAAAGTTGTTATCACTTGTCGTAAGACACTAAGGATGGGTTGAAGTTCTGCACGTAGAAGCAAAAGGC [T44A T45A] | 0.762
GAGACCGCAACTGAAAAGTTGTTATCACTTGTCGTAAGACACTACGGATGGGTTGAAGTTCTGCACGTAGAAGCAAAAGGC [T44A T45C] | 0.8

Variant | fraction ligated
GAGACCGCAACTGAAAAGTTGTTATCACTTGTCGTAAGACACTAGGGATGGGTTGAAGTTCTGCACGTAGAAGCAAAAGGC [T44A T45G] | 0.187
GAGACCGCAACTGAAAAGTTGTTATCACTTGTCGTAAGACACTGTGGATGGGTTTAAGTTCTGCACGTAGAAGCAAAAGGC [T44G G55T] | 0.795
GAGACCGCAACTGAAAAGTTGTTATCACTTGTCGTAAGACACTGTGGATGGGTTAAAGTTCTGCACGTAGAAGCAAAAGGC [T44G G55A] | 0.842
GAGACCGCAACTGAAAAGTTGTTATCACTTGTCGTAAGACACTGTGGATGGGTTCAAGTTCTGCACGTAGAAGCAAAAGGC [T44G G55C] | 0.729
GAGACCGCAACTGAAAAGTTGTTATCACTTGTCGTAAGACACTGTGGATGGGTTGACGTTCTGCACGTAGAAGCAAAAGGC [T44G A57C] | 0.816
GAGACCGCAACTGAAAAGTTGTTATCACTTGTCGTAAGACACTGTGGATGGGTTGATGTTCTGCACGTAGAAGCAAAAGGC [T44G A57T] | 0.857
GAGACCGCAACTGAAAAGTTGTTATCACTTGTCGTAAGACACTGTGGATGGGTTGAGGTTCTGCACGTAGAAGCAAAAGGC [T44G A57G] | 0.791
GAGACCGCAACTGAAAAGTTGTTATCACTTGTCGTAAGACACTCTGGATGGGTTTAAGTTCTGCACGTAGAAGCAAAAGGC [T44C G55T] | 0.779
GAGACCGCAACTGAAAAGTTGTTATCACTTGTCGTAAGACACTCTGGATGGGTTAAAGTTCTGCACGTAGAAGCAAAAGGC [T44C G55A] | 0.815
GAGACCGCAACTGAAAAGTTGTTATCACTTGTCGTAAGACACTCTGGATGGGTTCAAGTTCTGCACGTAGAAGCAAAAGGC [T44C G55C] | 0.754
GAGACCGCAACTGAAAAGTTGTTATCACTTGTCGTAAGACACTTAGGATGGGTTGGAGTTCTGCACGTAGAAGCAAAAGGC [T45A A56G] | 0.768
GAGACCGCAACTGAAAAGTTGTTATCACTTGTCGTAAGACACTTAGGATGGGTTGCAGTTCTGCACGTAGAAGCAAAAGGC [T45A A56C] | 0.782
GAGACCGCAACTGAAAAGTTGTTATCACTTGTCGTAAGACACTATGGAAGGGTTGAAGTTCTGCACGTAGAAGCAAAAGGC [T44A T49A] | 0.779
GAGACCGCAACTGAAAAGTTGTTATCACTTGTCGTAAGACACTATGGACGGGTTGAAGTTCTGCACGTAGAAGCAAAAGGC [T44A T49C] | 0.737
GAGACCGCAACTGAAAAGTTGTTATCACTTGTCGTAAGACACTATGGAGGGGTTGAAGTTCTGCACGTAGAAGCAAAAGGC [T44A T49G] | 0.785
GAGACCGCAACTGAAAAGTTGTTATCACTTGTCGTAAGACACTCTTGATGGGTTGAAGTTCTGCACGTAGAAGCAAAAGGC [T44C G46T] | 0.787
GAGACCGCAACTGAAAAGTTGTTATCACTTGTCGTAAGACACTCTCGATGGGTTGAAGTTCTGCACGTAGAAGCAAAAGGC [T44C G46C] | 0.8
